According to paper PMC5370183, “Kinetics of the LOV domain of ZEITLUPE determine its circadian function in Arabidopsis” (eLife, 2017):

Tests used:
[1] = target: the molecule itself; assay: SEC; Superdex 200 10/300 analytical column in stabilizing buffer (50 mM Tris pH 7 or 50 mM Hepes pH 8 with 100 mM and 10% glycerol); apparent MW against standards; G80R in dark and light state
[2] = target: the molecule itself; assay: SEC; R95A at 130 µM and 13 µM, dark and light state; elution not concentration dependent; dimer to monomers

B1: FKF1 28–174 (FLAVIN-BINDING, KELCH REPEAT, F-BOX 1 LOV domain) (domain or fragment, Arabidopsis thaliana, UniProt Q9C9W9 28-174, looked up)
chain: NDGIEEQVEDEKLPLEVGMFYYPMTPPSFIVSDALEPDFPLIYVNRVFEVFTGYRADEVLGRNCRFLQYRDPRAQRRHPLVDPVVVSEIRRCLEEGIEFQGELLNFRKDGTPLVNRLRLAPIRDDDGTITHVIGIQVFSETTIDLDR
notes: source: purified protein
[1]
  stoichiometry N: 2

B2: ZTL 16–165 (domain or fragment, Arabidopsis thaliana, UniProt Q94BT6 16-165, looked up)
chain: SLADDEEGGLFPGGGPIPYPVGNLLHTAPCGFVVTDAVEPDQPIIYVNTVFEMVTGYRAEEVLGGNCRFLQCRGPFAKRRHPLVDSMVVSEIRKCIDEGIEFQGELLNFRKDGSPLMNRLRLTPIYGDDDTITHIIGIQFFIETDIDLGP
notes: source: purified protein
[1]
  stoichiometry N: 2

B3: WT ZTL 29–165 (ZEITLUPE LOV domain construct ZTL-S) (domain or fragment, Arabidopsis thaliana, UniProt Q94BT6 29-165, looked up)
chain: GGPIPYPVGNLLHTAPCGFVVTDAVEPDQPIIYVNTVFEMVTGYRAEEVLGGNCRFLQCRGPFAKRRHPLVDSMVVSEIRKCIDEGIEFQGELLNFRKDGSPLMNRLRLTPIYGDDDTITHIIGIQFFIETDIDLGP
notes: also called ZTL LOV domain
[1]
  stoichiometry N: 2

B4: ZTL 29–165 R95A (domain or fragment, Arabidopsis thaliana, UniProt Q94BT6 29-165, looked up)
chain: GGPIPYPVGNLLHTAPCGFVVTDAVEPDQPIIYVNTVFEMVTGYRAEEVLGGNCRFLQCRGPFAKRAHPLVDSMVVSEIRKCIDEGIEFQGELLNFRKDGSPLMNRLRLTPIYGDDDTITHIIGIQFFIETDIDLGP
[2]
  Kd: < 200 nM
  stoichiometry N: 2

B5: ZTL 29–165 G46S:G80R (domain or fragment, Arabidopsis thaliana, UniProt Q94BT6 29-165, looked up)
chain: GGPIPYPVGNLLHTAPCSFVVTDAVEPDQPIIYVNTVFEMVTGYRAEEVLGRNCRFLQCRGPFAKRRHPLVDSMVVSEIRKCIDEGIEFQGELLNFRKDGSPLMNRLRLTPIYGDDDTITHIIGIQFFIETDIDLGP
[1]
  stoichiometry N: 2

B6: ZTL 29–165 V48I:G80R (domain or fragment, Arabidopsis thaliana, UniProt Q94BT6 29-165, looked up)
chain: GGPIPYPVGNLLHTAPCGFIVTDAVEPDQPIIYVNTVFEMVTGYRAEEVLGRNCRFLQCRGPFAKRRHPLVDSMVVSEIRKCIDEGIEFQGELLNFRKDGSPLMNRLRLTPIYGDDDTITHIIGIQFFIETDIDLGP
notes: Crystallised in the dark state (5SVV) and in the light state with the C4a adduct between C82 and FMN (5SVW)
[1]
  stoichiometry N: 2

B7: ZTL 29–165 G80R (domain or fragment, Arabidopsis thaliana, UniProt Q94BT6 29-165, looked up)
chain: GGPIPYPVGNLLHTAPCGFVVTDAVEPDQPIIYVNTVFEMVTGYRAEEVLGRNCRFLQCRGPFAKRRHPLVDSMVVSEIRKCIDEGIEFQGELLNFRKDGSPLMNRLRLTPIYGDDDTITHIIGIQFFIETDIDLGP
notes: Tested by SEC in dark and light state
[1]
  stoichiometry N: 2
